{
  "source": "patent CN112125972A",
  "about": "(SINOCELLTECH LTD, dated 2020)",
  "assay_in_all_cases": "double-antibody sandwich ELISA, R001 as capture and HRP-R001 as detection, mixture of HPV types",
  "key": {"[1]": {"biological_target": "T1, HPV11 VLP (Human papillomavirus type 11, UniProt P04012 1-501)", "T1 construct": "also called HPV11完整VLP蛋白", "T1 sequence": "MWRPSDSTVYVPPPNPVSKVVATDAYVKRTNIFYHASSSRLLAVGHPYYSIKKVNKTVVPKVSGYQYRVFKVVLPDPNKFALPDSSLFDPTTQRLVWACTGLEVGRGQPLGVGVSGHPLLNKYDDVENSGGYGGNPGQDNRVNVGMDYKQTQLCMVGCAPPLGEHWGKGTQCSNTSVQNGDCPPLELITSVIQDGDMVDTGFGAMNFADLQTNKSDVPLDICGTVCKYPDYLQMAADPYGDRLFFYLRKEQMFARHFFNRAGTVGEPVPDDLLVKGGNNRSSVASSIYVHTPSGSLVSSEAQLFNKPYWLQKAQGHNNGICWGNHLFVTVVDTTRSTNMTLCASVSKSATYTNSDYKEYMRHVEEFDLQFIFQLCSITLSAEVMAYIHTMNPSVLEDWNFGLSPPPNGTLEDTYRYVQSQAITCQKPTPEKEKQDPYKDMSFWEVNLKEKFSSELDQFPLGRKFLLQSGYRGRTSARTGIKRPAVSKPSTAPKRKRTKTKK"}, "[2]": {"biological_target": "T2, HPV51 VLP (Human papillomavirus type 51, UniProt P26536 1-504)", "T2 construct": "also called HPV51完整VLP蛋白", "T2 sequence": "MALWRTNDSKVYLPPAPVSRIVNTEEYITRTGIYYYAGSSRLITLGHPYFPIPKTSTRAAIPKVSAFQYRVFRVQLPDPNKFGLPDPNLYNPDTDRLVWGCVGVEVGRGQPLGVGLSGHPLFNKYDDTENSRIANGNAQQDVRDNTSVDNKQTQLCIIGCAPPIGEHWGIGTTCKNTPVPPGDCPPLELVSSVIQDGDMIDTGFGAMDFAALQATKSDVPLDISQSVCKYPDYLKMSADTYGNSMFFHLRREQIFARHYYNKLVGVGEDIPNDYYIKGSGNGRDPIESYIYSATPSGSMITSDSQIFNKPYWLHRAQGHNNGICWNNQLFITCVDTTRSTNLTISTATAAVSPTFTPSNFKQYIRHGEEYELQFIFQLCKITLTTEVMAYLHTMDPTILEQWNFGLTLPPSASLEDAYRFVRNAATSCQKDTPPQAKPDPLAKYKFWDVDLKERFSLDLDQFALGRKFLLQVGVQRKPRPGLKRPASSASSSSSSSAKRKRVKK"}, "[3]": {"biological_target": "T3, HPV18 VLP (Human papillomavirus type 18, UniProt P06794 62-568)", "T3 construct": "also called HPV18完整VLP蛋白", "T3 sequence": "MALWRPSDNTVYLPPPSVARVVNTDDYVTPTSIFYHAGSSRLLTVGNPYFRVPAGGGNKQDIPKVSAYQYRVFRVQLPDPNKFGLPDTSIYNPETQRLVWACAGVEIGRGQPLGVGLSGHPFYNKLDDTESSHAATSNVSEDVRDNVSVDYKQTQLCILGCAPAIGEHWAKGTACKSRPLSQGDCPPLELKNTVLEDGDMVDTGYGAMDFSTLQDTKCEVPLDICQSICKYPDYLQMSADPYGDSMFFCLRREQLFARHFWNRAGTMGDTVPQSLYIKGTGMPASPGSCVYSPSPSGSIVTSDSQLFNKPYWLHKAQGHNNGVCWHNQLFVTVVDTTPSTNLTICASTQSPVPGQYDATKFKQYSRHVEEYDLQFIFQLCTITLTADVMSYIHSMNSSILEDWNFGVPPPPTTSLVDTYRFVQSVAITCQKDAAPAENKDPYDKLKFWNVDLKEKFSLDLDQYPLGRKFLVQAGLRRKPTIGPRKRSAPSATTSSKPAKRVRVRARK"}, "[4]": {"biological_target": "T4, HPV39 VLP (Human papillomavirus type 39, UniProt P24838 1-505)", "T4 construct": "also called HPV39完整VLP蛋白", "T4 sequence": "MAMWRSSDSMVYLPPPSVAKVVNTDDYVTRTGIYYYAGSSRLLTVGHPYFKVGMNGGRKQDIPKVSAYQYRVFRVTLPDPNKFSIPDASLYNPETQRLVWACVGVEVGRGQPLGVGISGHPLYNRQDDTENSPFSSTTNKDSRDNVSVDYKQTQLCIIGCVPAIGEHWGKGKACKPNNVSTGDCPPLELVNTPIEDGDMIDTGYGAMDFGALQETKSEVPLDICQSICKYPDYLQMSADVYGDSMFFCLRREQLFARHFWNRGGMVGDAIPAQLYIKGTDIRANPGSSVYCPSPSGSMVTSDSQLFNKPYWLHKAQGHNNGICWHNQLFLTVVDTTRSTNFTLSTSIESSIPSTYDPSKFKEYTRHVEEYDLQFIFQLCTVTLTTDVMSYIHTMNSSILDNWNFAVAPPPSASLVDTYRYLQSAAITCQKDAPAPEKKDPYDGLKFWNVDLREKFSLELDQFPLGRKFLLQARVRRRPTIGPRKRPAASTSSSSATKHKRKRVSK"}, "[5]": {"biological_target": "T5, HPV35 VLP (Human papillomavirus type 35, UniProt P27232 1-502)", "T5 construct": "also called HPV35完整VLP蛋白", "T5 sequence": "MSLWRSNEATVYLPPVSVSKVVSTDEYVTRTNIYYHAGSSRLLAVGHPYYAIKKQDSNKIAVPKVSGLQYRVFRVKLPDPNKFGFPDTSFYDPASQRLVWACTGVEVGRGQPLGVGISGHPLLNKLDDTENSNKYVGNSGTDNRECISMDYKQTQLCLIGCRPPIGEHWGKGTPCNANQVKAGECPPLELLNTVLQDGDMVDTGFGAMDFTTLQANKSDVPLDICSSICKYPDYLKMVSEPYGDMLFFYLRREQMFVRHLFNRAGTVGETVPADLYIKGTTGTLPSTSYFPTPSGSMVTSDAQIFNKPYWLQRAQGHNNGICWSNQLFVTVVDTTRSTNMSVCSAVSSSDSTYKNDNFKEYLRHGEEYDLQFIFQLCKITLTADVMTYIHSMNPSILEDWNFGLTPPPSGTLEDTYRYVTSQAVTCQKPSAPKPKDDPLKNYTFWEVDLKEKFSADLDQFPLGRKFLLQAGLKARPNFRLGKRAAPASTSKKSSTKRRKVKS"}},
  "data": [
    {"binder": "HPV 16 R001 (antibody, V domains shown, An HRP-labelled form served as detection antibody in the sandwich ELISA; also called HPV16.001; 单克隆抗体HPV 16 R001) VH: QSVKESEGRLVTPGTPLTLTCTASGFTMSRYHMTWVRQAPGKGLEWIGIIYARNSDTYYANWAKGRFTISKTSTTVDLKITSPTIEDTATYFCARVDSDSSGAFDRLDLWGQGTLVTVSS VL: DPMLTQTAASVEVAVGGTVTIKCQASQSIGGYLSWYQQKPGQRPKLLIYRASTLASGVPSRFKGSGSGTEYTLTFSGVECADAAAYYCQQGYTSSDINNAFGGGTEVVVK", "values": [
      {"measurement": "binding result", "setting": "[1]", "result": "no binding (tested: 50ng/mL，25ng/mL，12.5ng/mL)"},
      {"measurement": "binding result", "setting": "[2]", "result": "no binding (tested: 50ng/mL，25ng/mL，12.5ng/mL)"},
      {"measurement": "binding result", "setting": "[3]", "result": "no binding (tested: 50ng/mL，25ng/mL，12.5ng/mL)"},
      {"measurement": "binding result", "setting": "[4]", "result": "no binding (tested: 50ng/mL，25ng/mL，12.5ng/mL)"},
      {"measurement": "binding result", "setting": "[5]", "result": "no binding (tested: 50ng/mL，25ng/mL，12.5ng/mL)"}
    ]}
  ]
}
